Legend:
[1] = molecular target: denatured human collagen I (UniProt P02452 162-1218; P08123 80-1119); experiment: ELISA
[2] = molecular target: denatured human collagen type IV (UniProt P02462 173-1669; P08572 184-1712); experiment: ELISA
Sequence of denatured human collagen type IV (P02462 173-1669, chain 1 of 2): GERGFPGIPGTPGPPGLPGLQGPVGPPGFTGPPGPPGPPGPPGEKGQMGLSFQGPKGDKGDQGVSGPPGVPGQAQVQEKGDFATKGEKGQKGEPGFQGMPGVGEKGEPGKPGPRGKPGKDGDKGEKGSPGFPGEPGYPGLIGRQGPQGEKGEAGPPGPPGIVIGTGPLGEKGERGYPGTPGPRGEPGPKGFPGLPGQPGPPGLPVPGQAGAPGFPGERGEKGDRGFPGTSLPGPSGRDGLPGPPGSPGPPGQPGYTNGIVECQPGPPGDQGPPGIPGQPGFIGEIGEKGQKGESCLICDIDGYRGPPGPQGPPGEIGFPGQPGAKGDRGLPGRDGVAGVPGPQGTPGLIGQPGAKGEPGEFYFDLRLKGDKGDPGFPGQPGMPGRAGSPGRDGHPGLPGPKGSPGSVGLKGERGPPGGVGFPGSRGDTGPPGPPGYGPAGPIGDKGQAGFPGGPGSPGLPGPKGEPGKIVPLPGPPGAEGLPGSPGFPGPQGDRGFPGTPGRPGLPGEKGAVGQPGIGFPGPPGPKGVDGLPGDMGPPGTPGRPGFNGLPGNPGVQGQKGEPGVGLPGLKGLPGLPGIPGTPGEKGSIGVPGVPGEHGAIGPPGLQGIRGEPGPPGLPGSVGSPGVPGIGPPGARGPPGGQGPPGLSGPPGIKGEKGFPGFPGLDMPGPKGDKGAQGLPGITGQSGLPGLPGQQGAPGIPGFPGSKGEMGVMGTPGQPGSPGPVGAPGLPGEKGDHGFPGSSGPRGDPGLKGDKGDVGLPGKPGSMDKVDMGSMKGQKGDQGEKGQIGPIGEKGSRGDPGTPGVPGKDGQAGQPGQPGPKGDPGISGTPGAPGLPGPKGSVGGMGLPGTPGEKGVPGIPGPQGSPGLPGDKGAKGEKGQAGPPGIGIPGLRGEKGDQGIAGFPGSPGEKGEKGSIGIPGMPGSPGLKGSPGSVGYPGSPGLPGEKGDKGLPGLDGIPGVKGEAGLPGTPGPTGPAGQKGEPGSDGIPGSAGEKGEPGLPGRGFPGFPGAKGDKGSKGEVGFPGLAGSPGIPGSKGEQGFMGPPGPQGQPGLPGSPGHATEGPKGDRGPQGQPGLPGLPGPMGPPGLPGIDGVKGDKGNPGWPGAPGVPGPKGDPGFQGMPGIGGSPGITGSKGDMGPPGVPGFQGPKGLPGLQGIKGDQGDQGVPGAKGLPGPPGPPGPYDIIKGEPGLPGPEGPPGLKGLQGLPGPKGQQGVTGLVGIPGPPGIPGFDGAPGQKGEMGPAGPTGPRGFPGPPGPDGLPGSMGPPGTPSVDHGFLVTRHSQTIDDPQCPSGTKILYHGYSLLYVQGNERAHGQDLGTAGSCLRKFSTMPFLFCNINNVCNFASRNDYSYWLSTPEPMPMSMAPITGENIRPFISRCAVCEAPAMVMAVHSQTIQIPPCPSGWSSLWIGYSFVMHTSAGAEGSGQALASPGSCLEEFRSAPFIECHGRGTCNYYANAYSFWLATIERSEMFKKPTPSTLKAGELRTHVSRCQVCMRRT
Sequence of denatured human collagen type IV (P08572 184-1712, chain 2 of 2): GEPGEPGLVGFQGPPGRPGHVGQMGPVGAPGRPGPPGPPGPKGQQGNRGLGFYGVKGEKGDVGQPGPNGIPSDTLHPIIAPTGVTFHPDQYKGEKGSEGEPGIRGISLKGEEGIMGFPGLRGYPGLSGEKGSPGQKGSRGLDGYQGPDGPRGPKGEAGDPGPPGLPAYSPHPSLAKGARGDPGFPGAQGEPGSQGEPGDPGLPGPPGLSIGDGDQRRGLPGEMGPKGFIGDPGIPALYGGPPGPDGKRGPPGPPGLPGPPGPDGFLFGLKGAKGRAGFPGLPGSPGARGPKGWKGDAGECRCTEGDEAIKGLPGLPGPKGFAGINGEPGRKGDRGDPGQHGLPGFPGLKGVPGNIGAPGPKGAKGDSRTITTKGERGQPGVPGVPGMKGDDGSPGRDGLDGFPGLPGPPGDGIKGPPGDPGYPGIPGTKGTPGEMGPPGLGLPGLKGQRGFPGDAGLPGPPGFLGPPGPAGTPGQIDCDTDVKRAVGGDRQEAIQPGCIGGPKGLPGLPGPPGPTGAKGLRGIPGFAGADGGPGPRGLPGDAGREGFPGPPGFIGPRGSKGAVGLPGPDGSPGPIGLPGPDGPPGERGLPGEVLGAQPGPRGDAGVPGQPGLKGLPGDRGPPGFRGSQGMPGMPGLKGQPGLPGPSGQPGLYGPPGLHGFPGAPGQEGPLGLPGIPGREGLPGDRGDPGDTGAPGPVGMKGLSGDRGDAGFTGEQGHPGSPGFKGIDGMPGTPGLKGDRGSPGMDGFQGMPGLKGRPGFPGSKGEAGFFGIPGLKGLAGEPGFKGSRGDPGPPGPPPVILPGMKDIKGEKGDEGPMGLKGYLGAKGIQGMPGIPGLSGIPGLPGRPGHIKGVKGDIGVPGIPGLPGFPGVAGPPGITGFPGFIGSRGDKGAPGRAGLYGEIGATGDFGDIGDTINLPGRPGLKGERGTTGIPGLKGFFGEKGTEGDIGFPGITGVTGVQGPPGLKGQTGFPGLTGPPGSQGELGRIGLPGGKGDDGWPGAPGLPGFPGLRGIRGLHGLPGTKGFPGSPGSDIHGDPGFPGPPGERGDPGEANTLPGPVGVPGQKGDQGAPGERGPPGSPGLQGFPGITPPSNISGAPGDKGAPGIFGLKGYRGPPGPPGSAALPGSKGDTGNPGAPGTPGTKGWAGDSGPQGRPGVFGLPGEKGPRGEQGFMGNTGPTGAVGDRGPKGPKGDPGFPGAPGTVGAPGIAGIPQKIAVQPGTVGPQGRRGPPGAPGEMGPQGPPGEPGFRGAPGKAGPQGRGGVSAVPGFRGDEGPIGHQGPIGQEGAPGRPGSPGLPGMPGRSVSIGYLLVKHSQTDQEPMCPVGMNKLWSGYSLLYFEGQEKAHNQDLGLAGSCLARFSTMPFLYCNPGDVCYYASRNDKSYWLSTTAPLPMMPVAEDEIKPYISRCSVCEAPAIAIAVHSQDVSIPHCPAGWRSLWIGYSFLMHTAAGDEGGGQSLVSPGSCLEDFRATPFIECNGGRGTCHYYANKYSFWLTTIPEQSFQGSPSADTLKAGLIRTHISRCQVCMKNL

Sequence of denatured human collagen I (P02452 162-1218 A1075T, chain 1 of 2): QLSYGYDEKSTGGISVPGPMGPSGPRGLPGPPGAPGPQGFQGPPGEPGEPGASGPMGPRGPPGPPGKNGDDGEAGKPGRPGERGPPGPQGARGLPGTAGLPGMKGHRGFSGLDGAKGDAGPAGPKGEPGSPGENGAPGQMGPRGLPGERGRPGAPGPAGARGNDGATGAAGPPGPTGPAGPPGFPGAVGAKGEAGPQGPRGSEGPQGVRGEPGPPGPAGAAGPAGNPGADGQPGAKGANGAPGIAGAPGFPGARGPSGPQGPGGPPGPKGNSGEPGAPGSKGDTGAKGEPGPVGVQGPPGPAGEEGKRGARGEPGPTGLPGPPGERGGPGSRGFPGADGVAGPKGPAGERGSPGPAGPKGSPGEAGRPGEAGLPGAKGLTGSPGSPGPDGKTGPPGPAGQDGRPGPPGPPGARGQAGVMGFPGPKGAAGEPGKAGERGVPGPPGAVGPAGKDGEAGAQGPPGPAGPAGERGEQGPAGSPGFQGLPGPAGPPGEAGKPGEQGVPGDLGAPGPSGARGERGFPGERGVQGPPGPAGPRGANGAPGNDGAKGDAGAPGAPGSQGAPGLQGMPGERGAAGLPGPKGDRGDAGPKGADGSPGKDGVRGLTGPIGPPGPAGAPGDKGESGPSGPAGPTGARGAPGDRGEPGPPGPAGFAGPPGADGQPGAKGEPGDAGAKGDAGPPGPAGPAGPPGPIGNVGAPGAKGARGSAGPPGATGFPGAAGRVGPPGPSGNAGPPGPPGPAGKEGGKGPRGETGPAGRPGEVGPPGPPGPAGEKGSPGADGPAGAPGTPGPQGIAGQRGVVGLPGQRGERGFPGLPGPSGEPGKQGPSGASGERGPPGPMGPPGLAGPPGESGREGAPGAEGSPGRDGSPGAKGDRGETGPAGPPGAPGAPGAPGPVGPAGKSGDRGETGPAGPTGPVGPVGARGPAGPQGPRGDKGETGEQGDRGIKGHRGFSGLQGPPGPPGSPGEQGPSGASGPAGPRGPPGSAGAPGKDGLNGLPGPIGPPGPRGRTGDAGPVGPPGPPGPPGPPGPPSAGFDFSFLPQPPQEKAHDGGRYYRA
Sequence of denatured human collagen I (P08123 80-1119, chain 2 of 2): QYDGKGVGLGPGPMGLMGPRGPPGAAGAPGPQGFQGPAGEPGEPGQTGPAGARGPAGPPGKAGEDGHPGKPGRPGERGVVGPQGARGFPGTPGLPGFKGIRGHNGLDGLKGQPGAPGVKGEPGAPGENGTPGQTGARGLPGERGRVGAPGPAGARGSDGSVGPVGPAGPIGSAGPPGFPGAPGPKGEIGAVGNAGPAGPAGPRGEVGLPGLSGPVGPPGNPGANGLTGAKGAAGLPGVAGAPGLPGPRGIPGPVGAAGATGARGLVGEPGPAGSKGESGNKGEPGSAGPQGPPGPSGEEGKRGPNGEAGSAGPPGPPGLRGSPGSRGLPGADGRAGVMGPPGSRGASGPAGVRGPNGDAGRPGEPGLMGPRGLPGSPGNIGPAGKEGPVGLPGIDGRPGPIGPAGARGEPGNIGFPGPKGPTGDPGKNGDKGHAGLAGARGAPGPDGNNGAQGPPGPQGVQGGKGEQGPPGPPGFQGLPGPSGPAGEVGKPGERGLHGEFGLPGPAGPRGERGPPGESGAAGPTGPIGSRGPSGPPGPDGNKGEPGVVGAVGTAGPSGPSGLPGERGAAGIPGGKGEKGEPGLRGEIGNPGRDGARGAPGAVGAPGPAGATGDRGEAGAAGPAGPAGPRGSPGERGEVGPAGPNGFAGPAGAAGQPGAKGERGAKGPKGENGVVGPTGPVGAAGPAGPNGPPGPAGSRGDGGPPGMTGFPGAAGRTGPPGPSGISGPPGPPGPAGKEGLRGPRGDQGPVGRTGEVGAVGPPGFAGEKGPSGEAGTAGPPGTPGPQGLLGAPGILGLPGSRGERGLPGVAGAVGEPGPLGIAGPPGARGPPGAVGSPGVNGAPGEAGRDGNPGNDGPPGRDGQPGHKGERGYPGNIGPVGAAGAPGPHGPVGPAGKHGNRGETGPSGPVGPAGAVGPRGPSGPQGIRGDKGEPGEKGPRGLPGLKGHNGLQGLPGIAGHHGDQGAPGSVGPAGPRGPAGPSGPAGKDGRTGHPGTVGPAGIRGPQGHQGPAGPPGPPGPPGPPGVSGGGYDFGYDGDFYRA

Binder	EC50 [1] [nM]	EC50 [2] [nM]
P27562716 (antibody, V domains shown) VH: EVQLVESGGGLVQPGGSLRLSCAASGFTFSTPGMGVWWVRQAPGKGLEWLADIWWDDNKYTNPSLKSRFTISRDNAKNSLYLQMNSLRAEDTAVYYCARRANYGNPYYAQDYWGQGTTVTVSS VL: DIVMTQTPLSLPVTPGEPASISCRSSQSIVSSWGNTYLEWYLQKPGQSPQLLIYKVSNRFSGVPDRFSGSGSGTDFTLKISRVEAEDVGVYYCFQGSHVPWTFGQGTKVEIKR	36.2	12
P27122797 (antibody, V domains shown) VH: QVTLKESGPALVKPTQTLTLTCTFSGFSLSTSGMGVGWIRQPPGKALEWLADIWWDDNKYANPSLKSRLTISKDTSKNQVVLTMTNMDPVDTATYYCARRANYGNPYYAQDYWGQGTTVTVSS VL: DIVMTQTPLSLPVTPGEPASISCRSSQSIVHSSGNTYLEWYLQKPGQSPQLLIYKVSNRFSGVPDRFSGSGSGTDFTLKISRVEAEDVGVYYCFQGSHVPWTFGQGTKVEIKR	8570	32.6
P27542716 (antibody, V domains shown) VH: EVQLVESGGGLVQPGGSLRLSCAASGFSLSTPGMGVWWVRQAPGKGLEWVADIWWDDNKYTNPSLKSRFTISRDNAKNSLYLQMNSLRAEDTAVYYCARRANYGNPYYAQDYWGQGTTVTVSS VL: DIVMTQTPLSLPVTPGEPASISCRSSQSIVSSWGNTYLEWYLQKPGQSPQLLIYKVSNRFSGVPDRFSGSGSGTDFTLKISRVEAEDVGVYYCFQGSHVPWTFGQGTKVEIKR	14.8	6.37
P27532716 (antibody, V domains shown) VH: EVQLVESGGGLVQPGGSLRLSCAASGFTLSTPGMGVWWVRQAPGKGLEWVADIWWDDNKYTNPSLKSRFTISRDNAKNSLYLQMNSLRAEDTAVYYCARRANYGNPYYAQDYWGQGTTVTVSS VL: DIVMTQTPLSLPVTPGEPASISCRSSQSIVSSWGNTYLEWYLQKPGQSPQLLIYKVSNRFSGVPDRFSGSGSGTDFTLKISRVEAEDVGVYYCFQGSHVPWTFGQGTKVEIKR	18.3	9.01
P27522716 (antibody, V domains shown) VH: EVQLVESGGGLVQPGGSLRLSCAASGFSFSTPGMGVWWVRQAPGKGLEWVADIWWDDNKYTNPSLKSRFTISRDNAKNSLYLQMNSLRAEDTAVYYCARRANYGNPYYAQDYWGQGTTVTVSS VL: DIVMTQTPLSLPVTPGEPASISCRSSQSIVSSWGNTYLEWYLQKPGQSPQLLIYKVSNRFSGVPDRFSGSGSGTDFTLKISRVEAEDVGVYYCFQGSHVPWTFGQGTKVEIKR	22.1	16.1
P27552716 (antibody, V domains shown) VH: EVQLVESGGGLVQPGGSLRLSCAASGFTFSTPGMGVWWIRQAPGKGLEWVADIWWDDNKYTNPSLKSRFTISRDNAKNSLYLQMNSLRAEDTAVYYCARRANYGNPYYAQDYWGQGTTVTVSS VL: DIVMTQTPLSLPVTPGEPASISCRSSQSIVSSWGNTYLEWYLQKPGQSPQLLIYKVSNRFSGVPDRFSGSGSGTDFTLKISRVEAEDVGVYYCFQGSHVPWTFGQGTKVEIKR	36.6	12.2
P27572716 (antibody, V domains shown) VH: EVQLVESGGGLVQPGGSLRLSCAASGFTFSTPGMGVWWVRQAPGKGLEWVADIWWDDNKYTNPSLKSRLTISRDNAKNSLYLQMNSLRAEDTAVYYCARRANYGNPYYAQDYWGQGTTVTVSS VL: DIVMTQTPLSLPVTPGEPASISCRSSQSIVSSWGNTYLEWYLQKPGQSPQLLIYKVSNRFSGVPDRFSGSGSGTDFTLKISRVEAEDVGVYYCFQGSHVPWTFGQGTKVEIKR	20800	18.8
P27122798 (antibody) chain 1: not shown chain 2: DIVMTQTPLSLPVTPGEPASISCRSSQSIVHSNANTYLEWYLQKPGQSPQLLIYKVSNRFSGVPDRFSGSGSGTDFTLKISRVEAEDVGVYYCFQGSHVPWTFGQGTKVEIKRTVAAPSVFIFPPSDEQLKSGTASVVCLLNNFYPREAKVQWKVDNALQSGNSQESVTEQDSKDSTYSLSSTLTLSKADYEKHKVYACEVTHQGLSSPVTKSFNRGEC	27.2	10.8

Source: patent publication US20230257453A1 (published 2023)
